Experimental data published in publication PMC4498904, “Mutagenesis Study Reveals the Rim of Catalytic Entry Site of HDAC4 and -5 as the Major Binding Surface of SMRT Corepressor” (PLoS ONE, 2015).

Tests used:
[1] = molecular target: T1, KGN-SRD3c (N-terminal portion of Kusabira Green protein fused with SRD3c) (human, UniProt Q9Y618 1281-1504); test: split reporter (BiFC, NanoBiT); quantitative BiFC (Kusabira Green, Fluo-Chase kit): KGN-SRD3c and KGC-HDAC coexpressed in HEK293, 48 h; fluorescence of cell lysates by spectrophotometer (ex 494 nm, em 538 nm); conditions: partners not purified
T1 construct: human SMRT, SRD3c region, amino acid 1281 to 1504; The methods say that KGN-MC-SRD3c was made in the KGC-MC vector; also called KGN-MC-SRD3c; source: HEK293, transfected, in cells or lysate
T1 sequence (Q9Y618 1281-1504): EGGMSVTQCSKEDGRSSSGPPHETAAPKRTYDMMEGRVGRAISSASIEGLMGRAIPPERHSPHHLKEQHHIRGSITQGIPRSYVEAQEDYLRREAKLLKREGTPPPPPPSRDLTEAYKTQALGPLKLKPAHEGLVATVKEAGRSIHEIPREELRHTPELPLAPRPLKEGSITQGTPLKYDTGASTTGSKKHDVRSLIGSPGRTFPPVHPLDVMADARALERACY

[2] = molecular target: HA-HDAC4c, wild type, expressed in HEK293 cells (human, UniProt P56524 650-1055); test: cell-based or functional assay

fold increase of the BiFC fluorescent signal over the KGC empty vector [1] [fold]	fold repression of a Gal4-tk-luciferase reporter by Gal4N-fused wild-type HDAC4c (50 and 100 ng plasmid) in HEK293 cells; endogenous SMRT-HDAC3 complex [2] [fold]	Binder
~2	–	KGC-HDAC5c (C-terminal portion of Kusabira Green protein fused with HDAC5c), wild type (domain or fragment, human, UniProt Q9UQL6 680-1087, looked up, human HDAC5 catalytic domain, amino acids 680 to 1087; also called KGC-MC-HDAC5c; source: HEK293, transfected, in cells or lysate) LFTTGVVYDTFMLKHQCMCGNTHVHPEHAGRIQSIWSRLQETGLLSKCERIRGRKATLDEIQTVHSEYHTLLYGTSPLNRQKLDSKKLLGPISQKMYAVLPCGGIGVDSDTVWNEMHSSSAVRMAVGCLLELAFKVAAGELKNGFAIIRPPGHHAEESTAMGFCFFNSVAITAKLLQQKLNVGKVLIVDWDIHHGNGTQQAFYNDPSVLYISLHRYDNGNFFPGSGAPEEVGGGPGVGYNVNVAWTGGVDPPIGDVEYLTAFRTVVMPIAHEFSPDVVLVSAGFDAVEGHLSPLGGYSVTARCFGHLTRQLMTLAGGRVVLALEGGHDLTAICDASEACVSALLSVELQPLDEAVLQQKPNINAVATLEKVIEIQSKHWSCVQKFAAGLGRSLREAQAGETEEAETVS
~2	–	KGC-HDAC4c (C-terminal portion of Kusabira Green protein fused with HDAC4c), wild type (domain or fragment, human, UniProt P56524 650-1055, looked up, also called KGC-MC-HDAC4c; source: HEK293, transfected, in cells or lysate) PRFTTGLVYDTLMLKHQCTCGSSSSHPEHAGRIQSIWSRLQETGLRGKCECIRGRKATLEELQTVHSEAHTLLYGTNPLNRQKLDSKKLLGSLASVFVRLPCGGVGVDSDTIWNEVHSAGAARLAVGCVVELVFKVATGELKNGFAVVRPPGHHAEESTPMGFCYFNSVAVAAKLLQQRLSVSKILIVDWDVHHGNGTQQAFYSDPSVLYMSLHRYDDGNFFPGSGAPDEVGTGPGVGFNVNMAFTGGLDPPMGDAEYLAAFRTVVMPIASEFAPDVVLVSSGFDAVEGHPTPLGGYNLSARCFGYLTKQLMGLAGGRIVLALEGGHDLTAICDASEACVSALLGNELDPLPEKVLQQRPNANAVRSMEKVMEIHSKYWRCLQRTTSTAGRSLIEAQTCENEEAET
–	7	Human HDAC3 (enzyme, UniProt O15379 1-428, looked up) MAKTVAYFYDPDVGNFHYGAGHPMKPHRLALTHSLVLHYGLYKKMIVFKPYQASQHDMCRFHSEDYIDFLQRVSPTNMQGFTKSLNAFNVGDDCPVFPGLFEFCSRYTGASLQGATQLNNKICDIAINWAGGLHHAKKFEASGFCYVNDIVIGILELLKYHPRVLYIDIDIHHGDGVQEAFYLTDRVMTVSFHKYGNYFFPGTGDMYEVGAESGRYYCLNVPLRDGIDDQSYKHLFQPVINQVVDFYQPTCIVLQCGADSLGCDRLGCFNLSIRGHGECVEYVKSFNIPLLVLGGGGYTVRNVARCWTYETSLLVEEAISEELPYSEYFEYFAPDFTLHPDVSTRIENQNSRQYLDQIRQTIFENLKMLNHAPSVQIHDVPADLLTYDRTDEADAEERGPEENYSRPEAPNEFYDGDHDNDKESDVEI
